One data set has as its target human NEP (Homo sapiens, UniProt P08473). The conditions noted are these: literature statement; ref Betts et al, [2008]; cited from earlier work.
A further data set has as its system ADAM10. The data set can be described thus: 0.4 µg. The conditions noted are these: human, 37°C, up to 24 h.

Consider 2 substances from article PMC3407951 (EMBO Molecular Medicine, 2012).

Chain of human NEP (P08473 whole entry): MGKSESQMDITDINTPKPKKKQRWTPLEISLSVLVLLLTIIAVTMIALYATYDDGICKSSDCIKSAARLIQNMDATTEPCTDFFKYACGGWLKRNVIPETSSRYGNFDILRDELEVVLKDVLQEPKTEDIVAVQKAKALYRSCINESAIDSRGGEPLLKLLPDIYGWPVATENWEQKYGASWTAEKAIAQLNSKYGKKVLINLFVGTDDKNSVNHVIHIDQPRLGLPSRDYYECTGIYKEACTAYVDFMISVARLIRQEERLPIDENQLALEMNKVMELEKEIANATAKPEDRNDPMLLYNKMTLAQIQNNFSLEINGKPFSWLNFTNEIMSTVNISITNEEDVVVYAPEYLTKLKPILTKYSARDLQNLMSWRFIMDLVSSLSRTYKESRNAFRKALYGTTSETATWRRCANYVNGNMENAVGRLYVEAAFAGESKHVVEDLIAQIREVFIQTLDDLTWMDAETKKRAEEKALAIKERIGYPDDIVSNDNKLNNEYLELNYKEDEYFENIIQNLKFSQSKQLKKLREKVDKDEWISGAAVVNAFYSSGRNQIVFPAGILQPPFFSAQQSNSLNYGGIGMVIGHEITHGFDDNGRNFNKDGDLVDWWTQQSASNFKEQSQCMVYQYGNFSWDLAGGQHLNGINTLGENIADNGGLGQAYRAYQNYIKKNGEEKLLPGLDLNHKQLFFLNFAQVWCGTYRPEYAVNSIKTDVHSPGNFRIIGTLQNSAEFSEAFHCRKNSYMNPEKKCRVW

In the case of “Aβ40 A21G: Aβ40 peptide with the Flemish mutation A21G (literature)”, the NEP-mediated degradation result with human NEP is “attenuated”.
EVHHQNLVFFAEDVGSNK: the fragment found entry in the data set on ADAM10 was “Aβ11–16 K16N, minor, 5 h”.
